Values of other authors in paper PMC4203807.

Biological target: clathrin heavy chain N-terminal domain (Rattus norvegicus) (UniProt P11442)
Sequence of UniProt P11442 (P11442 1-363): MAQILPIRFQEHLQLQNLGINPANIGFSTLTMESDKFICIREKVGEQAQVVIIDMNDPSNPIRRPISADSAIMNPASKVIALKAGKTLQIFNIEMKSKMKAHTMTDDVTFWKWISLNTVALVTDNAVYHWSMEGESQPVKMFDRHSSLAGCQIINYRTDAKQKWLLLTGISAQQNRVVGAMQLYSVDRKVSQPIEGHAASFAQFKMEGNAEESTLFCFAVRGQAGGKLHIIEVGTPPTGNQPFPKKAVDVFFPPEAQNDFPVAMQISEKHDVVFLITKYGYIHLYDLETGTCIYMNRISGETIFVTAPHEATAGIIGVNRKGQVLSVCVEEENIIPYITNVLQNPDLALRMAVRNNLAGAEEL

Kd: 250 µM
Substance: AP180 623-680 (from UniProt Q05140)
